The assay concerns the target T1, CD47 (UniProt Q08722 19-139, limits assumed).
T1 construct: also called Antigen; Cluster of differentiation 47
Description: Octet HTX BLI, antibody on anti-human Fc biosensors, antigen in solution, 1:1 fit. Here is the method:
The affinity of 9 humanized antibody combinations and the chimeric parental antibody was evaluated by Octet. Multi-concentration kinetic experiments were performed on the Octet HTX system (ForteBio). Anti-human Fc biosensors (ForteBio) were hydrated in sample diluent (0.1% BSA in PBS and 0.02% Tween 20) and preconditioned in pH 1.9 Glycine. Antigen was diluted by a 7 point, 3 fold serial dilution starting at 500 nM with sample diluent. Antibodies were diluted to 2 ug/mL with sample diluent and then immobilized onto anti-human Fc biosensors. After baselines were established for 30 seconds in sample diluent, the biosensors were moved to wells containing serially diluted antigen to measure the association and dissociation. […] The binding affinities were characterized by fitting the kinetic sensorgrams to a monovalent binding model (1:1 binding).
Background: In BLI a coated tip is dipped into the sample, and binding shifts an interference pattern.

T1 sequence (Q08722 19-139 limits assumed): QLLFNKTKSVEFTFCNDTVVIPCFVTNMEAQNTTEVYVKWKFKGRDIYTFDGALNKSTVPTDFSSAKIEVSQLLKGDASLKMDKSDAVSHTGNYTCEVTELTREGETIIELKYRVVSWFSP

B1: HC1 (SEQ ID NO: 123) + LC2 (SEQ ID NO: 127) (antibody, human IgG4 S228P, kappa, V domains shown)
VH: QVQLVQSGAEVKKPGASVKVSCKASGYAFTNYLIEWVRQAPGQGLEWMGVINPGSGATNYNQKFQGRVTMTADKSISTAYMELSRLRSDDTAVYFCARRVYFDYWGQGTLVTVSS
VL: EIVMTQSPATLSLSPGERATLSCRASQSISDYLHWYQQKPGQAPRLLIKYASQSISGIPARFSGSGSGSDFTLTISSLEPEDFAVYYCQNGHSFPLTFGQGTKLEIKR
notes: also called HC1 + LC2
With B1, the dissociation constant Kd came out at 26 nM, the koff came out at 0.0041 s⁻¹ and the kon worked out at 160000 M⁻¹ s⁻¹.

B2: HC1 (SEQ ID NO: 123) + LC1 (SEQ ID NO: 126) (antibody, human IgG4 S228P, kappa, V domains shown)
VH: QVQLVQSGAEVKKPGASVKVSCKASGYAFTNYLIEWVRQAPGQGLEWMGVINPGSGATNYNQKFQGRVTMTADKSISTAYMELSRLRSDDTAVYFCARRVYFDYWGQGTLVTVSS
VL: EIVLTQSPATLSLSPGERATLSCRASQSISDYLHWYQQKPGQAPRLLIKYASQSITGIPARFSGSGSGTDFTLTISSLEPEDFAVYYCQNGHSFPLTFGQGTKLEIKR
notes: also called HC1 + LC1
Take B2: the dissociation constant (Kd) amounted to 15 nM, the off-rate constant (koff) came out at 0.0025 s⁻¹ and the on-rate constant (kon) came to 160000 M⁻¹ s⁻¹.

B3: HC2 (SEQ ID NO: 124) + LC3 (SEQ ID NO: 128) (antibody, human IgG4 S228P, kappa, V domains shown)
VH: QVQLVQSGAEVKKPGASVKVSCKASGYAFTNYLIEWVRQAPGQGLEWIGVINPGSGATNYNQKFQGRVTLTADKSISTAYMELSRLRSDDTAVYFCARRVYFDYWGQGTLVTVSS
VL: DIVMTQSPATLSLSPGERATLSCRASQSISDYLHWYQQKPGQAPRLLIKYASQSISGIPARFSGSGSGTDFTLTISSLEPEDFAVYYCQNGHSFPLTFGQGTRLEIKR
notes: also called HC2 + LC3
As for B3, the Kd turned out to be 23 nM, the off-rate (koff) turned out to be 0.0034 s⁻¹ and the on-rate (kon) turned out to be 150000 M⁻¹ s⁻¹.

B4: HC3 (SEQ ID NO: 125) + LC1 (SEQ ID NO: 126) (antibody, human IgG4 S228P, kappa, V domains shown)
VH: QVQLVQSGAEVKKPGASVKVSCKASGYAFTNYLIEWVRQAPGQGLEWMGVINPGSGATNYNQKFQGRVTMTADKSTSTVYMELSSLRSEDTAVYFCARRVYFDYWGQGTLVTVSS
VL: EIVLTQSPATLSLSPGERATLSCRASQSISDYLHWYQQKPGQAPRLLIKYASQSITGIPARFSGSGSGTDFTLTISSLEPEDFAVYYCQNGHSFPLTFGQGTKLEIKR
notes: also called HC3 + LC1
With B4, the Kd turned out to be 12 nM, the koff was determined as 0.0025 s⁻¹ and the on-rate (kon) is 220000 M⁻¹ s⁻¹.

B5: HC3 (SEQ ID NO: 125) + LC3 (SEQ ID NO: 128) (antibody, human IgG4 S228P, kappa, V domains shown)
VH: QVQLVQSGAEVKKPGASVKVSCKASGYAFTNYLIEWVRQAPGQGLEWMGVINPGSGATNYNQKFQGRVTMTADKSTSTVYMELSSLRSEDTAVYFCARRVYFDYWGQGTLVTVSS
VL: DIVMTQSPATLSLSPGERATLSCRASQSISDYLHWYQQKPGQAPRLLIKYASQSISGIPARFSGSGSGTDFTLTISSLEPEDFAVYYCQNGHSFPLTFGQGTRLEIKR
notes: also called HC3 + LC3
Turning to B5, the Kd is 15 nM, the off-rate constant (koff) was found to be 0.0025 s⁻¹ and the on-rate (kon) stood at 170000 M⁻¹ s⁻¹.

B6: HC2 (SEQ ID NO: 124) + LC2 (SEQ ID NO: 127) (antibody, human IgG4 S228P, kappa, V domains shown)
VH: QVQLVQSGAEVKKPGASVKVSCKASGYAFTNYLIEWVRQAPGQGLEWIGVINPGSGATNYNQKFQGRVTLTADKSISTAYMELSRLRSDDTAVYFCARRVYFDYWGQGTLVTVSS
VL: EIVMTQSPATLSLSPGERATLSCRASQSISDYLHWYQQKPGQAPRLLIKYASQSISGIPARFSGSGSGSDFTLTISSLEPEDFAVYYCQNGHSFPLTFGQGTKLEIKR
notes: also called HC2 + LC2
B6: the Kd came out at 18 nM, the off-rate constant (koff) was found to be 0.003 s⁻¹ and the on-rate constant (kon) amounted to 170000 M⁻¹ s⁻¹.

B7: HC2 (SEQ ID NO: 124) + LC1 (SEQ ID NO: 126) (antibody, human IgG4 S228P, kappa, V domains shown)
VH: QVQLVQSGAEVKKPGASVKVSCKASGYAFTNYLIEWVRQAPGQGLEWIGVINPGSGATNYNQKFQGRVTLTADKSISTAYMELSRLRSDDTAVYFCARRVYFDYWGQGTLVTVSS
VL: EIVLTQSPATLSLSPGERATLSCRASQSISDYLHWYQQKPGQAPRLLIKYASQSITGIPARFSGSGSGTDFTLTISSLEPEDFAVYYCQNGHSFPLTFGQGTKLEIKR
notes: also called HC2 + LC1
B7: the dissociation constant (Kd) stood at 22 nM, the koff was found to be 0.0035 s⁻¹ and the association rate constant (kon) is 160000 M⁻¹ s⁻¹.

B8: HC3 (SEQ ID NO: 125) + LC2 (SEQ ID NO: 127) (antibody, human IgG4 S228P, kappa, V domains shown)
VH: QVQLVQSGAEVKKPGASVKVSCKASGYAFTNYLIEWVRQAPGQGLEWMGVINPGSGATNYNQKFQGRVTMTADKSTSTVYMELSSLRSEDTAVYFCARRVYFDYWGQGTLVTVSS
VL: EIVMTQSPATLSLSPGERATLSCRASQSISDYLHWYQQKPGQAPRLLIKYASQSISGIPARFSGSGSGSDFTLTISSLEPEDFAVYYCQNGHSFPLTFGQGTKLEIKR
notes: also called HC3 + LC2
Consider B8, for which the dissociation constant Kd amounted to 29 nM, the koff turned out to be 0.0036 s⁻¹ and the kon came to 120000 M⁻¹ s⁻¹.

B9: HC1 (SEQ ID NO: 123) + LC3 (SEQ ID NO: 128) (antibody, human IgG4 S228P, kappa, V domains shown)
VH: QVQLVQSGAEVKKPGASVKVSCKASGYAFTNYLIEWVRQAPGQGLEWMGVINPGSGATNYNQKFQGRVTMTADKSISTAYMELSRLRSDDTAVYFCARRVYFDYWGQGTLVTVSS
VL: DIVMTQSPATLSLSPGERATLSCRASQSISDYLHWYQQKPGQAPRLLIKYASQSISGIPARFSGSGSGTDFTLTISSLEPEDFAVYYCQNGHSFPLTFGQGTRLEIKR
notes: also called HC1 + LC3
With B9, the dissociation constant (Kd) is 15 nM, the koff stood at 0.0027 s⁻¹ and the kon turned out to be 180000 M⁻¹ s⁻¹.

What is called Kd is the equilibrium constant for the complex coming apart. A word on the koff: it is a measure of how fast the partners let go of each other. In general, kon refers to the second-order rate constant of association.

These data come from patent US20220144943A1 (INTEGRITY BIOVENTURES, published 2022).
